Literature values, collected in patent US20150290107A1, “COMPOSITIONS FOR TREATMENT OF XEROSTOMIA AND FOR TOOTH TREATMENT” (3 IN 1 DENTAL PLLC, priority 2013, published 2015).

Test system: lean meat
Conditions: usual grade

B1: Papain (protein, UniProt P00784 134-345, looked up)
Papain: IPEYVDWRQKGAVTPVKNQGSCGSCWAFSAVVTIEGIIKIRTGNLNEYSEQELLDCDRRSYGCNGGYPWSALQLVAQYGIHYRNTYPYEGVQRYCRSREKGPYAAKTDGVRQVQPYNEGALLYSIANQPVSVVLEAAGKDFQLYRGGIFVGPCGNKVDHAVAAVGYGPNYILIKNSWGTGWGENGYIRIKRGTGNSYGVCGLYTSSFYPVKN
notes: Protease enzyme; white or grayish-white, slightly hygroscopic powder
  potency: digesting times its weight of lean meat: ~35 times its weight
